B1: RAC2-T002 TCR (TCR)
TCR alpha: AQSVTQLGSHVSVSEGALVLLRCNYSSSVPPYLFWYVQYPNQGLQLLLKYTTGATLVKGINGFEAEFKKSETSFHLTKPSAHMSDAAEYFCAVGANNLFFGTGTRLTVIPY
TCR beta: EPEVTQTPSHQVTQMGQEVILRCVPISNHLYFYWYRQILGQKVEFLVSFYNNEISEKSEIFDDQFSVERPDGSNFTLKIRSTKLEDSAMYFCASSEWRGSSYNEQFFGPGTRLTVL
B2: RAC2-T001 TCR (TCR)
TCR alpha: GENVEQHPSTLSVQEGDSAVIKCTYSDSASNYFPWYKQELGKGPQLIIDIRSNVGEKKDQRIAVTLNKTAKHFSLHITETQPEDSAVYFCAASMGNAGNMLTFGGGTRLMVKPH
TCR beta: EPEVTQTPSHQVTQMGQEVILRCVPISNHLYFYWYRQILGQKVEFLVSFYNNEISEKSEIFDDQFSVERPDGSNFTLKIRSTKLEDSAMYFCASSETSGASYEQYFGPGTRLTVT

Biological target: RAC2^P29L peptide … presented by HLA-A2 (peptide-loaded T2 cells) (human)
Experiment: cell-based or functional assay

| Binder | IFNγ production by TCR-transduced T cells (relative) |
| --- | --- |
| B1 | 100% |
| B2 | 100% |

Source: patent US20240189352A1
